± gives the uncertainty stated by the source.
B1: Lysine-specific demethylase 2B, residues 656 to 722; numbered along this chain, Q8NHM5 (parent)
chain: LPHTAVCLVCGEAGKEDTVEEEEGKFNLMLMECSICNEIIHPGCLKIKESEGVVNDELPNCWECPKC

Variants of: B1
Assay: abundance fitness (aPCA) (normalised: wild type 0, dead -1); higher = more abundant; growth selection in yeast, the domain comes from the species named
Settings: Homo sapiens

Variant | abundance fitness
V19R | 0.056 ± 0.086
V19Y | -0.295 ± 0.18
V19L | 0.017 ± 0.11
V19I | -0.131 ± 0.33
V19A | -0.049 ± 0.089
V19T | 0.013 ± 0.1
V19M | -0.067 ± 0.22
V6P | -0.124 ± 0.14
V6E | -0.378 ± 0.19
V6A | -0.557 ± 0.25
V6L | -0.004 ± 0.1
V6S | -0.094 ± 0.17
V6N | -0.085 ± 0.23
V6R | -0.285 ± 0.14
K25P | -0.787 ± 0.2
K25I | -0.453 ± 0.11
K25R | -0.324 ± 0.088
H41Q | -0.952 ± 0.21
H41W | -0.913 ± 0.14
H41E | -0.997 ± 0.18
H41A | -0.931 ± 0.22
H41T | -0.784 ± 0.16
H41K | -0.278 ± 0.16
I35S | -0.364 ± 0.19

Variant | abundance fitness
I35L | 0.016 ± 0.094
I35G | -0.14 ± 0.11
I35D | -0.323 ± 0.2
I35P | -1.07 ± 0.3
G14K | -0.229 ± 0.19
G14E | -0.395 ± 0.17
G14M | -0.172 ± 0.14
G14C | -1.04 ± 0.28
G14L | -0.508 ± 0.094
G14W | -0.635 ± 0.095
G52S | -0.146 ± 0.12
G52P | 0.171 ± 0.1
G52A | 0.224 ± 0.11
G52Q | -0.094 ± 0.1
G52E | -0.016 ± 0.12
G43K | -0.219 ± 0.13
G43F | -0.558 ± 0.16
G43R | -0.173 ± 0.065
G43W | -0.52 ± 0.12
G43C | -0.395 ± 0.12
G43V | -0.302 ± 0.12
L58E | 0.011 ± 0.13
L58T | 0.206 ± 0.096
L58W | -0.149 ± 0.095

Variant | abundance fitness
L58G | -0.171 ± 0.078
F26N | 0.053 ± 0.13
F26D | -0.4 ± 0.21
F26H | -0.343 ± 0.2
F26A | -0.204 ± 0.084
F26R | -0.018 ± 0.097
N27I | -0.275 ± 0.44
N27V | -0.472 ± 0.12
N27P | -0.038 ± 0.1
N27E | -0.044 ± 0.12
N27T | -0.169 ± 0.12
H3W | -0.572 ± 0.12
H3T | 0.147 ± 0.087
H3C | -0.642 ± 0.17
H3A | -0.013 ± 0.12
H3V | 0.234 ± 0.089
H3E | 0.34 ± 0.13
H3N | 0.177 ± 0.16
H3G | 0.42 ± 0.067
L45P | -0.515 ± 0.19
L45T | -0.085 ± 0.1
L45I | -0.434 ± 0.41
L30K | -0.034 ± 0.23
L30N | -0.152 ± 0.16

Variant | abundance fitness
L30F | -0.778 ± 0.27
L30M | -0.373 ± 0.14
L30R | -0.196 ± 0.062
L30G | -0.209 ± 0.089
L30H | -0.603 ± 0.24
C64P | -0.684 ± 0.23
C64H | 0.218 ± 0.39
T4R | -0.979 ± 0.23
T4M | -0.878 ± 0.24
T4N | -0.205 ± 0.25
T4S | -0.345 ± 0.16
T4K | -0.964 ± 0.48
T4L | -1.21 ± 0.39
E51R | -0.001 ± 0.066
E51L | -0.385 ± 0.11
E51M | -0.19 ± 0.093
A13H | -0.437 ± 0.24
A13C | -0.297 ± 0.14
A13R | 0.443 ± 0.066
A13G | 0.387 ± 0.058
A13Y | -0.117 ± 0.14
A13Q | 0.471 ± 0.11
K48E | 0.152 ± 0.1
K48G | -0.056 ± 0.067

Variant | abundance fitness
K48V | -0.261 ± 0.12
C33L | -0.765 ± 0.15
C33P | -0.729 ± 0.19
C33V | -1.24 ± 0.22
C33G | -0.629 ± 0.1
C33T | -0.753 ± 0.19
C33R | -0.593 ± 0.12
C33E | -0.619 ± 0.14
C33K | -0.6 ± 0.17
E32V | -0.287 ± 0.098
E32A | -0.222 ± 0.092
E32G | -0.063 ± 0.077
E32P | -0.53 ± 0.22
E32Y | -0.668 ± 0.22
E32S | 0.044 ± 0.088
E20G | 0.035 ± 0.098
E20S | -0.191 ± 0.093
E20D | -0.276 ± 0.23
E20T | -0.169 ± 0.11
E20V | -0.03 ± 0.08
E20L | -0.146 ± 0.074
E20A | -0.046 ± 0.095
E20P | -0.081 ± 0.16
E20Q | -0.126 ± 0.12

Variant | abundance fitness
S50P | 0.087 ± 0.13
S50M | -0.155 ± 0.18
S50K | -0.025 ± 0.075
S50Q | -0.111 ± 0.13
I47D | -0.261 ± 0.24
I47R | -0.207 ± 0.067
I47A | -0.014 ± 0.11
I47S | -0.002 ± 0.076
I47M | 0.16 ± 0.097
E16G | -0.137 ± 0.086
E16R | -0.148 ± 0.083
C36E | -0.736 ± 0.14
C36I | -0.477 ± 0.25
C36V | -0.921 ± 0.13
C36R | -0.72 ± 0.091
C36D | -0.549 ± 0.26
C36L | -0.643 ± 0.18
L8R | 0.104 ± 0.14
L8P | -0.433 ± 0.24
L8E | -0.584 ± 0.23
N55L | -0.188 ± 0.085
N55P | -0.227 ± 0.17
N55W | -0.389 ± 0.19
N55H | 0.049 ± 0.22

Variant | abundance fitness
P2G | 0.588 ± 0.14
I39Y | 0.076 ± 0.11
I39N | 0.056 ± 0.15
I39Q | 0.257 ± 0.089
N60G | -0.062 ± 0.079
N60R | -0.044 ± 0.08
N60T | -0.091 ± 0.14
N60L | -0.3 ± 0.066
N60S | -0.166 ± 0.072
K66T | -0.079 ± 0.11
K66V | -0.173 ± 0.24
K66E | -0.058 ± 0.21
K66A | -0.425 ± 0.18
K66L | -0.705 ± 0.18
K66S | -0.284 ± 0.098
K66C | -0.819 ± 0.41
M29W | -0.522 ± 0.17
M29E | -0.362 ± 0.12
M29V | -0.318 ± 0.093
M29Q | -0.15 ± 0.24
M29A | -0.297 ± 0.14
V54T | 0.126 ± 0.12
V54W | -0.124 ± 0.21

Source: the Human Domainome abundance scans (Beltran et al. 2025)
